{"source": "paper PMC10003451", "about": "“Phosphorylated Peptide Derived from the Myosin Phosphatase Target Subunit Is a Novel Inhibitor of Protein Phosphatase-1” (International Journal of Molecular Sciences, 2023)", "key": {"[1]": {"tested_on": "native catalytic subunit of PP1 (PP1c)", "assay": "Phosphatase assay of native PP1c with ^32P-MLC20 substrate", "assay_type": "biochemical, rabbit skeletal muscle", "conditions": "PP1c 1.5–2.2 nM, 1 µM ^32P-MLC20, pH 7.4, 30 °C; n = 4", "protocol": "Figure 2 Effects of a phosphorylated peptide from MYPT1 on the activity of PP1c, PP2Ac and myosin phosphatase holoenzyme (Flag-MYPT1-PP1c). (A): The native catalytic subunit of PP1 (PP1c; ▼,●) or PP2A (PP2Ac; ∆) purified from rabbit skeletal muscle or Flag-MYPT1-PP1c overexpressed and isolated from tsa201 cells (○) was assayed in the presence of dephosphorylated (▼) or phosphorylated (○,●,∆) MYPT1 peptide of R^690QSRRS(pT696)QGVTL^701 (P-Thr696-MYPT1^690−701) with ^32P-MLC20 substrate as described in Section 4. Values are mean ± SD (n = 4). Phosphatase activity in the absence of peptide was taken 100%. (B): Interaction of recombinant PP1cα with the phosphorylated peptide assessed by microscale thermophoresis (MST) or (C): with isotherm titration calorimetry (ITC) as described in Section 4. […] Only the axis text 'MYPT1^690-701 peptides' names the substance, and no target is printed. / Panel C: the picture prints no substance label for the ITC parameters.\nThe ^32Pi released from ^32P-MLC20 substrate were determined as previously described. The assay (80 µL) to determine the half-life of dephoshorylation for ^32P-MLC20 (10 µM) in the presence of various concentration of P-Thr696-MYPT1^690−701 (10–500 µM) was carried out in a similar fashion except that 5 µL aliquots were removed from the reaction mixture at different intervals for radioactivity measurements."}, "[2]": {"target": "T1, recombinant PP1cα (rPP1cα) (Homo sapiens, UniProt P62136)", "T1 construct": "made in house; host or cells: E. coli", "T1 sequence (P62136 whole entry)": "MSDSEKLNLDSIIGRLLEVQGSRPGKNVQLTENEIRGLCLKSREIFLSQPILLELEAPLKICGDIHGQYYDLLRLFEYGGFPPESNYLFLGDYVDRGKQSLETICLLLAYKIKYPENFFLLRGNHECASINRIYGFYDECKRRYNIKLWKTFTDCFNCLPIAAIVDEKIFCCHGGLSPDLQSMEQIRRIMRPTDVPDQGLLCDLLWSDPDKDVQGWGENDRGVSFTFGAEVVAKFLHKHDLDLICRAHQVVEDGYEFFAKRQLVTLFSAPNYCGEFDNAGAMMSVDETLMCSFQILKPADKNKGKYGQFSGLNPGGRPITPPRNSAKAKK", "assay": "Microscale thermophoresis (MST)", "assay_type": "binding", "conditions": "rPP1cα 2 µM, peptide 9.16 nM-300 µM, 25 mM Tris/HCl, 100 mM NaCl, 1 mM DTT, 0.1% PEG 8000, pH 8.0; intrinsic fluorescence, Monolith NT.LabelFree", "protocol": "The interaction of P-Thr696-MYPT1^690−701 and the recombinant PP1cα (rPP1cα) was studied by Monolith^TM NT.LabelFree (MST power: 40%; LED Power: 10%) instrument (NanoTemper Technologies GmbH, Munich, Germany). A 16-point two-fold P-Thr696-MYPT1^690−701 peptide dilution series was generated (9.16 nM-300 µM) in 25 mM Tris/HCl, 100 mM NaCl, 1 mM DTT, 0.1% PEG 8000, pH 8.0 and mixed with rPP1cα (2 µM). The mixtures were loaded into NT.LabelFree standard capillaries. The capillaries on the capillary tray were scanned and intrinsic fluorescence change of rPP1cα upon ligand binding was recorded. The data were analyzed by MO.Affinity Analysis v2.3 software."}, "[3]": {"target": "T1, recombinant PP1cα (rPP1cα)", "assay": "Isothermal titration calorimetry (ITC)", "assay_type": "binding", "conditions": "rPP1cα 0.5–2 µM, peptide 5–20 µM, 25 mM Tris/HCl (pH 8.0), 150 mM NaCl, 1 mM TCEP, 25 °C; one set of site model", "protocol": "Isothermal titration calorimetry (ITC) experiments were carried out with MicroCal ITC200 instrument. rPP1cα was dialyzed in 25 mM Tris/HCl (pH 8.0), 150 mM NaCl, 1 mM TCEP (assay buffer) for 3 h first, then 16 h with a fresh batch of solution. Prior to measurements, rPP1cα (0.5–2 µM) was transferred into the sample cell of the calorimeter while the reference cell was filled with the assay buffer. P-Thr696-MYPT1^690−701 (5–20 µM) in the assay was applied to the syringe and 2 µL aliquot (19 times) was injected into the cell at a stirring rate of 300 rpm at 25 °C. The reference power was 5 µcal/s. The titration data were analyzed with MicroCal ITC-Origin software using one set of site model to obtain binding parameters of protein–ligand interaction."}}, "data": [{"substance": "MYPT1^690−701: synthesized MYPT1 peptide, non-phosphorylated (RQSRRSTQGVTL; UniProt O14974 690-701, looked up, fragment)", "values": [{"measurement": "effect on PP1c activity", "setting": "[1]", "value": "without effect"}, {"measurement": "KD by MST", "setting": "[2]", "value": "no MST or ITC signals suitable for quantitative evaluation were obtained"}, {"measurement": "KD by ITC", "setting": "[3]", "value": "no MST or ITC signals suitable for quantitative evaluation were obtained"}]}]}
